Experimental data as given in the supplement of paper PMC11246515.
± gives the standard deviation of the averaged measurements.

Experiment: total protein half-life in vivo (active degradation + dilution); higher = more stable protein
[1] = E. coli NCM3722 delta-clpP delta-lon delta-hslV, growth: N-lim chemostat, doubling time 6 h
[2] = E. coli NCM3722 delta-clpP, growth: N-lim chemostat, doubling time 6 h
[3] = E. coli NCM3722 delta-hslV, growth: N-lim chemostat, doubling time 6 h
[4] = E. coli NCM3722 delta-lon, growth: N-lim chemostat, doubling time 6 h
[5] = E. coli NCM3722 delta-smpB, growth: N-lim chemostat, doubling time 6 h
[6] = wild type E. coli NCM3722, growth: C-lim chemostat, doubling time 3 h
[7] = wild type E. coli NCM3722, growth: C-lim chemostat, doubling time 6 h
[8] = wild type E. coli NCM3722, growth: C-lim chemostat, doubling time 12 h
[9] = wild type E. coli NCM3722, growth: N-lim chemostat, doubling time 6 h
[10] = wild type E. coli NCM3722, growth: N-lim chemostat, doubling time 12 h
[11] = wild type E. coli NCM3722, growth: P-lim chemostat, doubling time 6 h
[12] = wild type E. coli NCM3722, growth: P-lim chemostat, doubling time 12 h

Sequence | total protein half-life in vivo [1] [h] | total protein half-life in vivo [2] [h] | total protein half-life in vivo [3] [h] | total protein half-life in vivo [4] [h] | total protein half-life in vivo [5] [h] | total protein half-life in vivo [6] [h] | total protein half-life in vivo [7] [h] | total protein half-life in vivo [8] [h] | total protein half-life in vivo [9] [h] | total protein half-life in vivo [10] [h] | total protein half-life in vivo [11] [h] | total protein half-life in vivo [12] [h]
MKFFALFIYRPVATILLSVAITLCGILGFRMLPVAPLPQVDFPVIIVSASLPGASPETMASSVATPLERSLGRIAGVSEMTSSSSLGSTRIILQFDFDRDINGAARDVQAAINAAQSLLPSGMPSRPTYRKANPSDAPIMILTLTSDTYSQGELYDFASTQLAPTISQIDGVGDVDVGGSSLPAVRVGLNPQALFNQGVSLDDVRTAVSNANVRKPQGALEDGTHRWQIQTNDELKTAAEYQPLIIHYNNGGAVRLGDVATVTDSVQDVRNAGMTNAKPAILLMIRKLPEANIIQTVDSIRAKLPELQETIPAAIDLQIAQDRSPTIRASLEEVEQTLIISVALVILVVFLFLRSGRATIIPAVSVPVSLIGTFAAMYLCGFSLNNLSLMALTIATGFVVDDAIVVLENIARHLEAGMKPLQAALQGTREVGFTVLSMSLSLVAVFLPLLLMGGLPGRLLREFAVTLSVAIGISLLVSLTLTPMMCGWMLKASKPREQKRLRGFGRMLVALQQGYGKSLKWVLNHTRLVGVVLLGTIALNIWLYISIPKTFFPEQDTGVLMGGIQADQSISFQAMRGKLQDFMKIIRDDPAVDNVTGFTGGSRVNSGMMFITLKPRDERSETAQQIIDRLRVKLAKEPGANLFLMAVQDIRVGGRQSNASYQYTLLSDDLAALREWEPKIRKKLATLPELADVNSDQQDNGAEMNLVYDRDTMARLGIDVQAANSLLNNAFGQRQISTIYQPMNQYKVVMEVDPRYTQDISALEKMFVINNEGKAIPLSYFAKWQPANAPLSVNHQGLSAASTISFNLPTGKSLSDASAAIDRAMTQLGVPSTVRGSFAGTAQVFQETMNSQVILIIAAIATVYIVLGILYESYVHPLTILSTLPSAGVGALLALELFNAPFSLIALIGIMLLIGIVKKNAIMMVDFALEAQRHGNLTPQEAIFQACLLRFRPIMMTTLAALFGALPLVLSGGDGSELRQPLGITIVGGLVMSQLLTLYTTPVVYLFFDRLRLRFSRKPKQTVTE | 6.8 ± 0.5 | 6.49 ± 0.36 | 5.92 ± 0.38 | 7.42 ± 0.68 | 5.44 ± 0.14 | 3.64 ± 0.29 | 6.08 ± 1 | 14.4 ± 0.89 | 5.78 ± 0.89 | 13.8 ± 0.8 | 6.3 ± 0.2 | 12.2 ± 0.66
MTNPLLTPFELPPFSKILPEHVVPAVTKALNDCRENVERVVAQGAPYTWENLCQPLAEVDDVLGRIFSPVSHLNSVKNSPELREAYEQTLPLLSEYSTWVGQHEGLYKAYRDLRDGDHYATLNTAQKKAVDNALRDFELSGIGLPKEKQQRYGEIATRLSELGNQYSNNVLDATMGWTKLVTDEAELAGMPESALAAAKAQAEAKELEGYLLTLDIPSYLPVMTYCDNQALREEMYRAYSTRASDQGPNAGKWDNSKVMEEILALRHELAQLLGFENYAFKSLATKMAENPQQVLDFLTDLAKRARPQGEKELAQLRAFAKAEFGVDELQPWDIAYYSEKQKQHLYSISDEQLRPYFPENKAVNGLFEVVKRIYGITAKERKDVDVWHPDVRFFELYDENNELRGSFYLDLYARENKRGGAWMDDCVGQMRKADGSLQKPVAYLTCNFNRPVNGKPALFTHDEVITLFHEFGHGLHHMLTRIETAGVSGISGVPWDAVELPSQFMENWCWEPEALAFISGHYETGEPLPKELLDKMLAAKNYQAALFILRQLEFGLFDFRLHAEFRPDQGAKILETLAEIKKLVAVVPSPSWGRFPHAFSHIFAGGYAAGYYSYLWADVLAADAFSRFEEEGIFNRETGQSFLDNILSRGGSEEPMDLFKRFRGREPQLDAMLEHYGIKG | 4.42 ± 0.21 | 4.18 ± 0.052 | 4.03 ± 0.15 | 3.74 ± 0.18 | 3.55 ± 0.062 | 2.795 ± 0.023 | 5.17 ± 0.21 | 8.7 ± 0.94 | 3.68 ± 0.23 | 5.67 ± 0.55 | 5.1797 ± 0.00065 | 9.96 ± 1.1
MEPKTKKQRSLYIPYAGPVLLEFPLLNKGSAFSMEERRNFNLLGLLPEVVETIEEQAERAWIQYQGFKTEIDKHIYLRNIQDTNETLFYRLVNNHLDEMMPVIYTPTVGAACERFSEIYRRSRGVFISYQNRHNMDDILQNVPNHNIKVIVVTDGERILGLGDQGIGGMGIPIGKLSLYTACGGISPAYTLPVVLDVGTNNQQLLNDPLYMGWRNPRITDDEYYEFVDEFIQAVKQRWPDVLLQFEDFAQKNAMPLLNRYRNEICSFNDDIQGTAAVTVGTLIAASRAAGGQLSEKKIVFLGAGSAGCGIAEMIISQTQREGLSEEAARQKVFMVDRFGLLTDKMPNLLPFQTKLVQKRENLSDWDTDSDVLSLLDVVRNVKPDILIGVSGQTGLFTEEIIREMHKHCPRPIVMPLSNPTSRVEATPQDIIAWTEGNALVATGSPFNPVVWKDKIYPIAQCNNAFIFPGIGLGVIASGASRITDEMLMSASETLAQYSPLVLNGEGMVLPELKDIQKVSRAIAFAVGKMAQQQGVAVKTSAEALQQAIDDNFWQAEYRDYRRTSI | 6.33 ± 0.63 | 6.5 ± 0.58 | 5.686 ± 0.037 | 6.01 ± 0.3 | 6.06 ± 0.73 | 3.1 ± 0.2 | 5.94 ± 0.31 | 10.8 ± 0.22 | 5.23 ± 0.31 | 10.8 ± 0.32 | 6.05 ± 0.42 | 12.1 ± 0.8
MKIGTQNQAFFPENILEKFRYIKEMGFDGFEIDGKLLVNNIEEVKAAIKETGLPVTTACGGYDGWIGDFIEERRLNGLKQIERILEALAEVGGKGIVVPAAWGMFTFRLPPMTSPRSLDGDRKMVSDSLRVLEQVAARTGTVVYLEPLNRYQDHMINTLADARRYIVENDLKHVQIIGDFYHMNIEEDNLAQALHDNRDLLGHVHIADNHRYQPGSGTLDFHALFEQLRADNYQGYVVYEGRIRAEDPAQAYRDSLAWLRTC | 5.87 ± 0.64 |  |  |  |  |  |  |  |  |  |  | 
MSTPLQGIKVLDFTGVQSGPSCTQMLAWFGADVIKIERPGVGDVTRHQLRDIPDIDALYFTMLNSNKRSIELNTKTAEGKEVMEKLIREADILVENFHPGAIDHMGFTWEHIQEINPRLIFGSIKGFDECSPYVNVKAYENVAQAAGGAASTTGFWDGPPLVSAAALGDSNTGMHLLIGLLAALLHREKTGRGQRVTMSMQDAVLNLCRVKLRDQQRLDKLGYLEEYPQYPNGTFGDAVPRGGNAGGGGQPGWILKCKGWETDPNAYIYFTIQEQNWENTCKAIGKPEWITDPAYSTAHARQPHIFDIFAEIEKYTVTIDKHEAVAYLTQFDIPCAPVLSMKEISLDPSLRQSGSVVEVEQPLRGKYLTVGCPMKFSAFTPDIKAAPLLGEHTAAVLQELGYSDDEIAAMKQNHAI |  |  |  |  |  |  |  |  |  |  | 5.48 | 
MKELVVVAIGGNSIIKDNASQSIEHQAEAVKAVADTVLEMLASDYDIVLTHGNGPQVGLDLRRAEIAHKREGLPLTPLANCVADTQGGIGYLIQQALNNRLARHGEKKAVTVVTQVEVDKNDPGFAHPTKPIGAFFSDSQRDELQKANPDWCFVEDAGRGYRRVVASPEPKRIVEAPAIKALIQQGFVVIGAGGGGIPVVRTDAGDYQSVDAVIDKDLSTALLAREIHADILVITTGVEKVCIHFGKPQQQALDRVDIATMTRYMQEGHFPPGSMLPKIIASLTFLEQGGKEVIITTPECLPAALRGETGTHIIKT |  |  |  |  |  | 2.78 ± 1.3 | 5.03 |  |  |  |  | 
MSYQPQTEAATSRFLNVEEAGKTLRIHFNDCGQGDETVVLLHGSGPGATGWANFSRNIDPLVEAGYRVILLDCPGWGKSDSVVNSGSRSDLNARILKSVVDQLDIAKIHLLGNSMGGHSSVAFTLKWPERVGKLVLMGGGTGGMSLFTPMPTEGIKRLNQLYRQPTIENLKLMMDIFVFDTSDLTDALFEARLNNMLSRRDHLENFVKSLEANPKQFPDFGPRLAEIKAQTLIVWGRNDRFVPMDAGLRLLSGIAGSELHIFRDCGHWAQWEHADAFNQLVLNFLARP | 5.3 ± 0.56 | 2.05 ± 0.77 | 2.34 ± 0.87 | 2.71 | 2.32 ± 0.21 | 1.42 ± 0.3 | 2.67 ± 0.065 | 4.07 | 1.93 | 3.13 | 3.21 | 5.69 ± 1.3
